Consider 38 molecules from US20060183194A1 (Genentech, published 2006).

The target of experiment [1] is T1, ErbB-4 receptor-Ig fusion (human, UniProt Q15303 26-651).
T1 construct: extracellular domain;range 224-C-terminus; also called ErbB-4-Ig; not shown: human IgG heavy chain constant region from His224 (hinge) on
T1 sequence: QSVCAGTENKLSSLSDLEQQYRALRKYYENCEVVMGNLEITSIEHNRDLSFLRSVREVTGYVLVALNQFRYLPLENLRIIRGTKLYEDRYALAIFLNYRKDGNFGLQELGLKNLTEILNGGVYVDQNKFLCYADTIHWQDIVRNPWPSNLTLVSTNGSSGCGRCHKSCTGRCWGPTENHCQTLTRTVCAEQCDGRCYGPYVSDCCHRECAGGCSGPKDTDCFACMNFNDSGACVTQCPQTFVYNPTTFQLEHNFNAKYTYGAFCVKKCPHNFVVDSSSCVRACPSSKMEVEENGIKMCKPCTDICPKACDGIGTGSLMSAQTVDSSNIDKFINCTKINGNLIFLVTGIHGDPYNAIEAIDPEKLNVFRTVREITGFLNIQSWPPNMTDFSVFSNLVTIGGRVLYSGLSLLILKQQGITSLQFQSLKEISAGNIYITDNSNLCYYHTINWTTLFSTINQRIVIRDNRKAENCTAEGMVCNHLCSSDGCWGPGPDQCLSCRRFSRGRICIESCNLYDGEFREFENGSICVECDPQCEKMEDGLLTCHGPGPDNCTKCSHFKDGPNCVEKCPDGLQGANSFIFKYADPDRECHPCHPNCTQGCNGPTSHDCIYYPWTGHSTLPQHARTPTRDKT
Put plainly: displacement of 125I-HRG-β1 177-244 from plate-bound ErbB-4-Ig.

Experiment [2] deals with T2, ErbB-3 receptor-Ig fusion (human, UniProt P21860 20-643).
T2 construct: extracellular domain;range 224-C-terminus; also called ErbB-3-Ig; 3/3 homodimer; not shown: human IgG heavy chain constant region from His224 (hinge) on
T2 sequence (P21860 other isoform, or with tags, fused parts or gaps): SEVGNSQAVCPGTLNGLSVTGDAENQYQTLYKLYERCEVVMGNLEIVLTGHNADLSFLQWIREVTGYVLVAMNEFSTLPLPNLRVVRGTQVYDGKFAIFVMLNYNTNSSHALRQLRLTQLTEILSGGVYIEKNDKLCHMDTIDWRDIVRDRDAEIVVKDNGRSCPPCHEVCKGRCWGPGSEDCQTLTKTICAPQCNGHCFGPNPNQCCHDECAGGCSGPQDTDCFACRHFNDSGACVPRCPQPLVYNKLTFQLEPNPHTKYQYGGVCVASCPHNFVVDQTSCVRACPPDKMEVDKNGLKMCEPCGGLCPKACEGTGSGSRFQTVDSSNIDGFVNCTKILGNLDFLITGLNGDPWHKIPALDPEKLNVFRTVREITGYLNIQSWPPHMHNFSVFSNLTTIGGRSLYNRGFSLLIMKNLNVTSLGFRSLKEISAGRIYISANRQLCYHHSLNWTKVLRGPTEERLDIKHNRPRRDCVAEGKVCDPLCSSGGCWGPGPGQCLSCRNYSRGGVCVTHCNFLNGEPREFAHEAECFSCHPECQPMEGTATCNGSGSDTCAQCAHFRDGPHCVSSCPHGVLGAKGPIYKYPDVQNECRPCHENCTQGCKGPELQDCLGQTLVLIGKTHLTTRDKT
Put plainly: displacement of 125I-HRG-β1 177-244 from plate-bound ErbB-3-Ig. Background: In a radioligand displacement assay an active substance lowers the binding of a labelled ligand.

The target in experiment [3] is T1, ErbB-4 receptor-Ig fusion. Put plainly: phage ELISA; soluble ErbB-4-Ig as competitor. (In general: ELISA stands for enzyme-linked immunosorbent assay.)
Protocol: (§1) Microtiter plates (Nunc Maxisorp™ 96-well plates, Inter Med, Denmark) for phage ELISA were prepared as follows. The wells were precoated overnight with 0.5 μg of rabbit anti-human IgG (Fc gamma fragment-specific) antibodies (Jackson Immunoresearch, West Grove, Pa.) in 100 μL 50 mM NaCO₃ (pH 9.6). The wells were blocked for 30 minutes (min) with 200 μL PBS containing 0.1% bovine serum albumin (BSA) and rinsed with wash buffer (PBS containing 0.05% Tween 20™). The wells were then coated with 0.1 μg ErbB-2/3-Ig in binding buffer (PBS, 0.1% BSA, 0.05% Tween 20™) for 1 h, and washed again.
(§2) Serial dilutions of soluble ErbB-2/3-Ig (competitor) and a concentration of phage predetermined to give 60% saturation (without competitor) were added to the wells in 100 μL binding buffer. Following incubation for 2 h at room temperature, plates were washed extensively and treated with a 1:900 dilution of anti-M13 horseradish peroxidase conjugate (Pharmacia, Piscataway, N.J.) for 20 min. The amount of phage binding was determined by assaying horseradish peroxidase activity using o-phenylenediamine dihydrochloride) substrate solution (Sigma Chemical Company, St. Louis, Mo.). EC₅₀ values were calculated as the concentration of soluble ErbB-2/3-Ig required to compete half of the phage off the plate.
In experiment [4] the target is T2, ErbB-3 receptor-Ig fusion. Put plainly: phage ELISA; soluble ErbB-3-Ig as competitor.
Protocol: as §1, §2
For experiment [5], the target named is T3, ErbB-2/3 receptor-Ig fusion (human, UniProt P04626 23-652; P21860 20-643).
T3 construct: extracellular domain;range 224-C-terminus; Co-expressed in HEK-293; also called ErbB-2/3-Ig; 2/3-heterodimer; not shown: human IgG heavy chain constant region from His224 (hinge) on
Put plainly: phage ELISA; soluble ErbB-2/3-Ig competes phage off plate-bound ErbB-2/3-Ig.

Substitutions are numbered along the chain they refer to. Numbers in names are those of the source.

Regarding “Trx-HRG-β1 146-244 R207A fusion (soluble) (from UniProt Q6DR98 147-244) (ligand)”, the EC50 (in general, the midpoint of the concentration-response curve) in experiment [1] stood at 24.3 nM; in experiment [2] it was 245 nM. As to “Trx-HRG-β1 146-244 K211A fusion (soluble) (from UniProt Q6DR98 147-244) (ligand)”, the 50% effective concentration (EC50) in experiment [1] turned out to be 124 nM; in experiment [2], 248 nM. Taken in the same sequence, the figures for “Trx-HRG-β1 146-244 P205A fusion (soluble) (from UniProt Q6DR98 147-244) (ligand)” were 34.2 nM and 39.5 nM.

As to “Trx-HRG-β1 146-244 H178A fusion (soluble) (from UniProt Q6DR98 147-244) (ligand)”, the figures for the EC50 in experiment [1] and in experiment [2] were 138 nM and 476 nM, respectively. As for “Trx-HRG-β1 146-244 G194A fusion (soluble) (from UniProt Q6DR98 147-244) (ligand)”, the EC50 in experiment [1] was 275 nM; in experiment [2] it was 1210 nM. Taken in the same sequence, the figures for “Trx-HRG-β1 146-244 G218A fusion (soluble) (from UniProt Q6DR98 147-244) (ligand)” were 608 nM and 668 nM.

As to “Trx-HRG-β1 146-244 N192A fusion (soluble) (from UniProt Q6DR98 147-244) (ligand)”, the EC50 in experiment [1] was 696 nM; in experiment [2] it was 1640 nM. “Trx-HRG-β1 146-244 V199A fusion (soluble) (from UniProt Q6DR98 147-244) (ligand)”: in experiment [1], the concentration for a half-maximal effect (EC50) worked out at 246 nM.

On to “Trx-HRG-β1 146-244 S177A fusion (soluble) (from UniProt Q6DR98 147-244) (ligand)”, for which the EC50 was determined as 54.6 nM in experiment [1] and 129 nM in experiment [2]. Taken in the same sequence, the figures for “Trx-HRG-β1 146-244 Y224A fusion (soluble) (from UniProt Q6DR98 147-244) (ligand)” were 24.5 nM and 339 nM.

As for “Trx-HRG-β1 146-244 T217A fusion (soluble) (from UniProt Q6DR98 147-244) (ligand)”, the half-maximal effective concentration (EC50) was 32.7 nM in experiment [1] and 145 nM in experiment [2].

As to “Trx-HRG-β1 146-244 E215A fusion (soluble) (from UniProt Q6DR98 147-244) (ligand)”, the EC50 in experiment [1] was 104 nM; in experiment [2] it was 156 nM.

As to “Trx-HRG-β1 146-244 K200A fusion (soluble) (from UniProt Q6DR98 147-244) (ligand)”, the results for the EC50 in experiment [1] and in experiment [2] were 16.9 nM and 45.4 nM, respectively. Taken in the same sequence, the figures for “Trx-HRG-β1 146-244 L179A fusion (soluble) (from UniProt Q6DR98 147-244) (ligand)” were 51.7 nM and 394 nM. With “Trx-HRG-β1 146-244 E195A fusion (soluble) (from UniProt Q6DR98 147-244) (ligand)”, the EC50 in experiment [1] turned out to be 13.2 nM; in experiment [2], 42 nM. In the case of “Trx-HRG-β1 146-244 F216A fusion (soluble) (from UniProt Q6DR98 147-244) (ligand)”, the EC50 was 173 nM in experiment [1] and 2550 nM in experiment [2]. Taken in the same sequence, the figures for “Trx-HRG-β1 146-244 F229A fusion (soluble) (from UniProt Q6DR98 147-244) (ligand)” were 89.9 nM and 177 nM.

In the case of “Trx-HRG-β1 146-244 F189A fusion (soluble) (from UniProt Q6DR98 147-244) (ligand)”, the half-maximal effective concentration (EC50) in experiment [1] amounted to 565 nM; in experiment [2] it was 975 nM. Take “Trx-HRG-β1 146-244 G193A fusion (soluble) (from UniProt Q6DR98 147-244) (ligand)”: the EC50 turned out to be 76.3 nM in experiment [1] and 26.9 nM in experiment [2].

B1: recombinantly produced HRG-β1 177-244 (soluble) (ligand)
chain: SHLVKCAEKEKTFCVNGGECFMVKDLSNPSRYLCKCPNEFTGDRCQNYVMASFYKHLGIEFMEAEELY
In the case of B1, the EC50 in experiment [1] was 14.8 nM; in experiment [2], 9 nM.

B2: HRG-β1 177-244 H178A on phage (ligand)
chain: B1 chain with H2A
notes: not shown: M13 pIII C-terminal fragment (from pIII residue 247), the phage display partner
B2: the EC50 in experiment [3] turned out to be 32 nM.

B3: HRG-β1 177-244 G193A on phage (ligand)
chain: B1 chain with G17A
notes: as for B2
In experiment [3], B3 returned an EC50 of 23 nM.

B4: HRG-β1 177-244 Y224A on phage (ligand)
chain: B1 chain with Y48A
notes: as for B2
For the molecule B4, the EC50 in experiment [3] stood at 51 nM; in experiment [4], 865 nM.

B5: HRG-β1 177-244 P205A on phage (ligand)
chain: B1 chain with P29A
notes: not shown: M13 pIII fragment from residue 247 to the C-terminus (phage display carrier) and any cloning-site junction
Consider B5, for which the half-maximal effective concentration (EC50) was 8 nM in experiment [3] and 22 nM in experiment [4].

B6: HRG-β1 177-244 E215A on phage (ligand)
chain: B1 chain with E39A
notes: as for B5
Turning to B6, the 50% effective concentration (EC50) amounted to 32 nM in experiment [3] and 51 nM in experiment [4].

B7: HRG-β1 177-244 F229A on phage (ligand)
chain: B1 chain with F53A
notes: as for B2
The molecule B7 yielded an EC50 in experiment [4] of 6 nM.

B8: HRG-β1 177-244 L179A on phage (ligand)
chain: B1 chain with L3A
notes: as for B2
Turning to B8, the values for the EC50 in experiment [3] and in experiment [4] were 56 nM and ~1000 nM, respectively.

B9: HRG-β1 177-244 R207A on phage (ligand)
chain: B1 chain with R31A
notes: as for B5
For B9, the EC50 in experiment [3] is 30 nM.

B10: HRG-β1 177-244 N192A on phage (ligand)
chain: B1 chain with N16A
notes: as for B2
Molecule B10 returned an EC50 in experiment [3] of 188 nM.

B11: HRG-β1 177-244 K211A on phage (ligand)
chain: B1 chain with K35A
notes: as for B5
B11: it took 59 nM to reach a half-maximal effect in experiment [3] (EC50).

B12: HRG-β1 177-244 G194A on phage (ligand)
chain: B1 chain with G18A
notes: as for B2
Consider B12, for which the results for the 50% effective concentration (EC50) in experiment [3] and in experiment [4] were 65 nM and 500 nM, respectively.

B13: HRG-β1 177-244 T217A on phage (ligand)
chain: B1 chain with T41A
notes: as for B5
In turn, B13 registered an EC50 in experiment [3] of 14.2 nM.

B14: HRG-β1 177-244 V199A on phage (ligand)
chain: B1 chain with V23A
notes: as for B5
As to B14, the concentration for a half-maximal effect (EC50) in experiment [3] is 47 nM; in experiment [4], 27 nM.

B15: HRG-β1 177-244 S177A on phage (ligand)
chain: B1 chain with S1A
notes: as for B2
Turning to B15, the EC50 in experiment [3] turned out to be 83 nM; in experiment [4], 67 nM.

B16: HRG-β1 177-244 E195A on phage (ligand)
chain: B1 chain with E19A
notes: as for B2
B16 gave an EC50 in experiment [3] of 24 nM.

B17: HRG-β1 177-244 K200A on phage (ligand)
chain: B1 chain with K24A
notes: also called K2OO; not shown: M13 pIII fragment from residue 247 to the C-terminus (phage display carrier) and any cloning-site junction
Consider B17, for which the values for the half-maximal effective concentration (EC50) in experiment [3] and in experiment [4] were 25 nM and 20 nM, respectively.

B18: HRG4: HRG-β1 147-227 displayed on phage, fused to pIII 247 (ligand, phage M13)
chain: YVSSESPIRISVSTEGANTSSSTSTSTTGTSHLVKCAEKEKTFCVNGGECFMVKDLSNPSRYLCKCPNEFTGDRCQNYVMAGGSGGGSGSGDFDYEKMANANKGAMTENADENALQSDAKGKLDSVATDYGAAIDGFIGDVSGLANGNGATGDFAGSNSQMAQVGDGDNSPLMNNFRQYLPSLPQSVECRPFVFSAGKPYEFSIDCDKINLFRGVFAFLLYVATFMYVFSTFANILRNKES
notes: range 247-C-terminus; Monovalent phage display; also called pHRG4-g3
In experiment [5], B18 came in with an EC50 of 38 nM.

B19: TH-WT: thioredoxin fused at its C-terminus to wild-type HRG-β1 146-244 (ligand)
chain: DDDDKAYVSSESPIRISVSTEGANTSSSTSTSTTGTSHLVKCAEKEKTFCVNGGECFMVKDLSNPSRYLCKCPNEFTGDRCQNYVMASFYKHLGIEFMEAEELY
notes: also called Trx-wild-type HRG-β1; not shown: thioredoxin (Trx) from pTrxFus
As to B19, the results for the EC50 in experiment [1] and in experiment [2] were 15.4 nM and 47.6 nM, respectively.
